Reference: patent publication US20020164667A1 (VEGENICS, published 2002)
Ends that are not written are not given here.

B1: CYGFLWGMC (SEQ ID NO: 60) (peptide)
peptide: CYGFLWGMC
modifications: not fully specified (bridges); cysteine pairing not given here; also: displayed on fUSE5 phage as coat protein fusion, flanking residues not given here
notes: also called CX7C library clone

Biological target: T1, human VEGFR3-Fc fusion protein (human, UniProt P35916 25-329, limits assumed)
T1 construct: domain: first three Ig homology domain of the extracellular portion; Coated on microtiter wells at 1 ug/ml; not shown: Fc tail of human IgG1, cloned in frame after the VEGFR3 Ig homology domains
T1 sequence (looked up): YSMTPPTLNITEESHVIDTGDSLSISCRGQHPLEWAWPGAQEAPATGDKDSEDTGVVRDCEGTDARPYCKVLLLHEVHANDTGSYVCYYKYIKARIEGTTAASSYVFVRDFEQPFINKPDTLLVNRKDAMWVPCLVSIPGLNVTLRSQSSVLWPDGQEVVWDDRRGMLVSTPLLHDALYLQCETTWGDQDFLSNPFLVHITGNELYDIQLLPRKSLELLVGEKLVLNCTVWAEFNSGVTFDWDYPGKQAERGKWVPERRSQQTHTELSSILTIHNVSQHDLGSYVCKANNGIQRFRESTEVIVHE
Assay: phage attachment assay, VEGFR3-Fc-coated versus BSA-blocked microtiter wells
Experimental: VEGFR3-Fc fusionprotein (1 μg/ml) was coated on microtiter wells (96-well plate) overnight at 4° C. Wells were then saturated with 5% BSA. In the first panning, the libraries were incubated overnight at 4° C. in 50 mM TBS buffer (Tris-HCl/0.1M NaCl, pH 7.5) containing 1% BSA. After extensive washing, the bounded phages were eluted with a low pH buffer (0.1M glycine-HCl, 0.1%BSA, 0.05% phenol red, pH2.2)(Koivunen et al., Methods Mol. Biol. 129:3-17,1999; Koivunenet al, Biotechnol., 18(8):768-74,1999; Smoth et al., Methods Enzymol., 217:228-357, 1993). In subsequent pannings, the amplified phages using the K91kan E. coli.(Koivunen et al., Methods Mol. Biol. 129:3-17, 1999) were allowed to bind for 1 h at room temperature. Randomly selected clones from the fourth round of panning were amplified overnight and sequenced using ABIPRISM 310 Genetic Analyzer. The binding of each clone to VEGFR-3 was verified by an attachment assay, in which the cloned phage were incubated for 60 minutes in VEGFR3-Fc-coated or BSA-blocked microtiter wells. Thewells were washed ten times with TBS containing 0.5% Tween-20. The bound phages were titered by calculating the number of colonies.

Row | Binder | binding result
1 | KVGWSSPDW (also called X9 library clone) [KVGWSSPDW (SEQ ID NO: 38)] | binds
2 | FVGWTKVLG (also called X9 library clone) [FVGWTKVLG (SEQ ID NO: 39)] | binds
3 | CYGFEAAWC (also called CX7C library clone) [CYGFEAAWC (SEQ ID NO: 59)] | binds
4 | CHKWQKRQC (also called CX7C library clone) [CHKWQKRQC (SEQ ID NO: 62)] | binds
5 | WFSASLRFR (also called X9 library clone) [WFSASLRFR (SEQ ID NO: 43)] | binds
6 | CMDPWGGWC (also called CX7C library clone) [CMDPWGGWC (SEQ ID NO: 63)] | binds
7 | CVWDHGVC [CVWDHGVC (SEQ ID NO: 65)] | binds
8 | CVEVQITQEC (also called CX8C library clone) [CVEVQITQEC (SEQ ID NO: 56)] | binds
9 | SGYWWDTWF (also called X9 library clone) [SGYWWDTWF (SEQ ID NO: 36)] | binds
10 | YSSSMRWRH (also called X9 library clone) [YSSSMRWRH (SEQ ID NO: 40)] | binds
11 | CSRWRILGC (also called CX7C library clone) [CSRWRILGC (SEQ ID NO: 61)] | binds
12 | CWQLGRNWIC (also called CX8C library clone) [CWQLGRNWIC (SEQ ID NO: 55)] | binds
13 | CRKVWDIRC (also called CX7C library clone) [CRKVWDIRC (SEQ ID NO: 64)] | binds
14 | CRALDSALAC (also called CX8C library clone) [CRALDSALAC (SEQ ID NO: 58)] | binds
15 | CAGKASSLWC (also called CX8C library clone) [CAGKASSLWC (SEQ ID NO: 57)] | binds
16 | CGQMCTVWCSSGC (also called CX3CX3CX3C library clone) [CGQMCTVWCSSGC (SEQ ID NO: 66)] | binds
17 | SCYWRDTWF (also called X9 library clone) [SCYWRDTWF (SEQ ID NO: 37)] | binds
18 | SAVFRGRWL (also called X9 library clone) [SAVFRGRWL (SEQ ID NO: 42)] | binds
19 | B1 | binds
20 | RWRGNAYPG (also called X9 library clone) [RWRGNAYPG (SEQ ID NO: 41)] | binds
